Assay results published in the supplement of paper PMC9233669.
This sample holds only a part of the variants without activity.

Legend:
[1] = system: biotinyl-Trp-oxazolone; experiment: self-aminoacylation, catalytic enhancement (BWO) (fold over background); higher = more active; k-Seq, kA / k0A0; sequences stand for … in GGGAAUGGAUCCACAUCUACGAAUUC…UUCACUGCAGACUUGACGAAGCUG
Outline: (§1)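 Mutagenized RNA pools (0.43 μM; 21-nt variable region) were treated with 2–1250 μM of each biotinyl-aminoacyl-oxazolone. Conditions were 50 μL HEPES/NaCl/KCl/MgCl2/CaCl2 buffer, 5% acetonitrile, pH 6.9–7.0, room temperature, 90 minutes. Catalytic enhancement, the median kA relative to the uncatalyzed rate, was derived from streptavidin capture, qPCR and Illumina sequencing.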

[2] = system: biotinyl-Leu-oxazolone; experiment: self-aminoacylation, catalytic enhancement (BLO) (fold over background); higher = more active; k-Seq, kA / k0A0; sequences stand for … in GGGAAUGGAUCCACAUCUACGAAUUC…UUCACUGCAGACUUGACGAAGCUG
Outline: as §1

[3] = system: biotinyl-Met-oxazolone; experiment: self-aminoacylation, catalytic enhancement (BMO) (fold over background); higher = more active; k-Seq, kA / k0A0; sequences stand for … in GGGAAUGGAUCCACAUCUACGAAUUC…UUCACUGCAGACUUGACGAAGCUG
Outline: as §1

[4] = system: biotinyl-Ile-oxazolone; experiment: self-aminoacylation, catalytic enhancement (BIO) (fold over background); higher = more active; k-Seq, kA / k0A0; sequences stand for … in GGGAAUGGAUCCACAUCUACGAAUUC…UUCACUGCAGACUUGACGAAGCUG
Outline: as §1

[5] = system: biotinyl-Val-oxazolone; experiment: self-aminoacylation, catalytic enhancement (BVO) (fold over background); higher = more active; k-Seq, kA / k0A0; sequences stand for … in GGGAAUGGAUCCACAUCUACGAAUUC…UUCACUGCAGACUUGACGAAGCUG
Outline: as §1

[6] = system: biotinyl-Phe-oxazolone; experiment: self-aminoacylation, catalytic enhancement (BFO) (fold over background); higher = more active; k-Seq, kA / k0A0; sequences stand for … in GGGAAUGGAUCCACAUCUACGAAUUC…UUCACUGCAGACUUGACGAAGCUG
Outline: as §1

Row | Sequence | self-aminoacylation [1] | self-aminoacylation [2] | self-aminoacylation [3] | self-aminoacylation [4] | self-aminoacylation [5] | self-aminoacylation [6]
1 | CCACACUUCACACAAUCGGUC [Fam1B.1 aminoacylation ribozyme variant] | 0.837 | 0.687 | 0.601 | 0.878 | 1.02 | 0.775
2 | AUUCCCCUGGUCAUCGUGUGA [Fam2.1 aminoacylation ribozyme variant] | 5.65 | 5.32 | 5.03 | 2.66 | 3.33 | 37.6
3 | AUGACCCUGAUCAUCGAGUGA [Fam2.1 aminoacylation ribozyme variant] | 6.06 | 5.85 | 5.56 | 2.73 | 2.84 | 19.5
4 | AAGUUUGCUAAUAGCCGGAAG [Fam3.1 aminoacylation ribozyme variant] | 2.38 | 1.4 | 1.14 | 1.25 | 1.25 | 3.2
5 | AUUCACAGAGGUCAUCGGGUG [Fam2.2 aminoacylation ribozyme variant] | 6.32 | 7.94 | 6.99 | 4.48 | 5.02 | 45.9
6 | GUUCACCUAGGGCAUCGGGUG [Fam2.2 aminoacylation ribozyme variant] | 4.28 | 3.57 | 3.44 | 3.29 | 3.42 | 23.4
7 | AUUACCAUGGCCAUCGAGUGA [Fam2.1 aminoacylation ribozyme variant] | 3.98 | 3.1 | 2.67 | 1.83 | 2.27 | 2.77
8 | CCACACGUCAAGCAUUCGGUC [Fam1B.1 aminoacylation ribozyme variant] | 2.16 | 1.71 | 2.23 | 2.03 | 3.21 | 5.03
9 | AUUACCCUGGUAAUCGCGUGA [Fam2.1 aminoacylation ribozyme variant] | 7.81 | 8.44 | 7.29 | 3.14 | 3.66 | 58.9
10 | AUUGCCCUGGUGAUCGAGUGA [Fam2.1 aminoacylation ribozyme variant] | 6 | 5.06 | 5.63 | 2.77 | 2.82 | 36.1
11 | CUACUCCAAACAAUGGGUCUG [Fam1A.1 aminoacylation ribozyme variant] | 0.754 | 0.799 | 0.784 | 0.948 | 0.863 | 0.772
12 | CUAAUUCAAACGAUCGGUCUG [Fam1A.1 aminoacylation ribozyme variant] | 0.656 | 0.72 | 0.696 | 0.689 | 0.648 | 0.8
13 | AUUACCCUAAUCAUCGAGUGA [Fam2.1 aminoacylation ribozyme variant] | 7.8 | 6.87 | 6.83 | 3.28 | 3.39 | 19.8
14 | AUUACCCUGGUCAUCCAGUGU [Fam2.1 aminoacylation ribozyme variant] | 3.1 | 3.15 | 3.14 | 1.95 | 1.81 | 7.23
15 | UCACACUUAAAGCAAUCGGUC [Fam1B.1 aminoacylation ribozyme variant] | 0.575 | 0.761 | 0.737 | 0.86 | 0.844 | 0.642
16 | CCACACUUGAAGCAAUCGCUC [Fam1B.1 aminoacylation ribozyme variant] | 1.31 | 1.52 | 1.3 | 1.36 | 1.59 | 0.891
17 | CCUCACUUCAAGCAAUCAGUC [Fam1B.1 aminoacylation ribozyme variant] | 6.56 | 1.01 | 0.83 | 0.781 | 0.921 | 21.2
18 | AUUCACCUAGGUCAUCGGUUU [Fam2.2 aminoacylation ribozyme variant] | 0.984 | 1.28 | 1.19 | 1.19 | 1.41 | 1.09
19 | AUGCACCUAGGUCAUCGGGUA [Fam2.2 aminoacylation ribozyme variant] | 9.92 | 12.9 | 10.2 | 6.6 | 5.82 | 42
20 | AUUACCCAGGACAUCGAGUGA [Fam2.1 aminoacylation ribozyme variant] | 8.66 | 7.26 | 8.33 | 3.56 | 3.9 | 56.4
21 | AUUCACCUAGGUCAUCGAGUA [Fam2.2 aminoacylation ribozyme variant] | 3.9 | 13.1 | 9.81 | 7.22 | 5.92 | 31.7
22 | CAACACUUCCAGCAAUCGGUC [Fam1B.1 aminoacylation ribozyme variant] | 1.01 | 1.1 | 1.1 | 1.41 | 1.26 | 0.986
23 | AUUCACCUUGGUCAUCGGCUG [Fam2.2 aminoacylation ribozyme variant] | 1.66 | 1.7 | 1.52 | 1.64 | 2.19 | 7.58
24 | CCACACUUCGAACAAUCGGUC [Fam1B.1 aminoacylation ribozyme variant] | 0.84 | 0.862 | 0.98 | 0.833 | 0.957 | 1.11
25 | CCACACUUGAAGCAAUGGGUC [Fam1B.1 aminoacylation ribozyme variant] | 0.833 | 0.739 | 0.696 | 0.99 | 0.811 | 1.26
26 | UUUCCCCUGGUCAUCGAGUGA [Fam2.1 aminoacylation ribozyme variant] | 7.7 | 5.44 | 6.12 | 3.26 | 3.87 | 39.1

Row | Sequence | self-aminoacylation [1] | self-aminoacylation [2] | self-aminoacylation [3] | self-aminoacylation [4] | self-aminoacylation [5] | self-aminoacylation [6]
27 | CUUACCCUGGUCAUCGGGUGA [Fam2.1 aminoacylation ribozyme variant] | 13.9 | 17.1 | 16 | 5.25 | 7.68 | 93.6
28 | AUUAUCCUGGUCUUCGAGUGA [Fam2.1 aminoacylation ribozyme variant] | 7.67 | 5.95 | 5.8 | 3.26 | 2.93 | 37.6
29 | CUACCUCAAACAAUCGGUCCG [Fam1A.1 aminoacylation ribozyme variant] | 1.2 | 1.9 | 1.15 | 1.04 | 1.18 | 1.05
30 | AUUGACCUUGGUCAUCGGGUG [Fam2.2 aminoacylation ribozyme variant] | 5.82 | 5.49 | 5.19 | 3.38 | 3.36 | 32.8
31 | AAGUUUACUAAUAGUCGCCAG [Fam3.1 aminoacylation ribozyme variant] | 1.31 | 1.24 | 1.23 | 1.42 | 1.21 | 1.61
32 | AUCACCCGGGUCAUCGAGUGA [Fam2.1 aminoacylation ribozyme variant] | 8.12 | 7.28 | 7.5 | 3.65 | 4.32 | 51.8
33 | CCACCCUUCAAGCAAUUGGUC [Fam1B.1 aminoacylation ribozyme variant] | 1.04 | 0.814 | 0.907 | 0.814 | 0.984 | 1.33
34 | AUUACCCUGGUUAUCGAAUGA [Fam2.1 aminoacylation ribozyme variant] | 0.677 | 0.866 | 0.971 | 0.965 | 0.846 | 0.877
35 | AAGGUUGCUAAGAGUCGCAAG [Fam3.1 aminoacylation ribozyme variant] | 1.57 | 1.1 | 0.884 | 1.17 | 1.03 | 1.9
36 | AAUACCCUGGUCAUCGUGUGA [Fam2.1 aminoacylation ribozyme variant] | 2.98 | 2.39 | 2.55 | 1.51 | 1.35 | 11.4
37 | AUUUCCCUGGUCAGCGAGUGA [Fam2.1 aminoacylation ribozyme variant] | 6.86 | 6.54 | 6.28 | 4.15 | 3.85 | 37.4
38 | AAGCUUGCUAAUUGUCGCAAG [Fam3.1 aminoacylation ribozyme variant] | 1.99 | 2.25 | 2.38 | 1.96 | 1.57 | 2.23
39 | AUUCACCUAGGGCUUCGGGUG [Fam2.2 aminoacylation ribozyme variant] | 3.63 | 2.82 | 3.39 | 2.69 | 2.92 | 15.1
40 | AAGUUUGCUAAAACUCGCAAG [Fam3.1 aminoacylation ribozyme variant] | 0.796 | 0.998 | 0.668 | 0.916 | 0.821 | 0.521
41 | AAGUUAGCUAAUAGUUGCAAG [Fam3.1 aminoacylation ribozyme variant] | 2.07 | 1.59 | 1.45 | 1.47 | 1.33 | 1.8
42 | CCACGCUUCAAGGAAUCGGUC [Fam1B.1 aminoacylation ribozyme variant] | 11 | 1.19 | 1.22 | 1.11 | 1.1 | 11.6
43 | AUGCGCCUAGGUCAUCGGGUG [Fam2.2 aminoacylation ribozyme variant] | 9.8 | 10.7 | 9.32 | 6.21 | 6.24 | 60.9
44 | AAGUUUGCGAGUAGUCGCAAG [Fam3.1 aminoacylation ribozyme variant] | 1.32 | 1.22 | 0.918 | 1.12 | 0.882 | 1.71
45 | CAACACUUCAAGCAAUCGGCC [Fam1B.1 aminoacylation ribozyme variant] | 3.87 | 2.45 | 2.64 | 2.57 | 2.58 | 4.12
46 | AUUCACCUCGGUCAUUGGGUG [Fam2.2 aminoacylation ribozyme variant] | 4.34 | 5.53 | 4.91 | 3.14 | 2.91 | 35.5
47 | CUCCUUCAAACAAUCGUUCUG [Fam1A.1 aminoacylation ribozyme variant] | 0.785 | 0.472 | 0.501 | 0.51 | 0.631 | 1.68
48 | GUUACCGUGGUCAUCGAGUGA [Fam2.1 aminoacylation ribozyme variant] | 10.1 | 10.6 | 9.15 | 5.33 | 5.58 | 55.3
49 | AAAUUUGCUAAAAGUCGCAAG [Fam3.1 aminoacylation ribozyme variant] | 2.75 | 2.26 | 1.93 | 2.08 | 1.75 | 2.5
50 | CCACCCUUCAAGCAAUCGGUG [Fam1B.1 aminoacylation ribozyme variant] | 6.85 | 10.2 | 7.37 | 4.86 | 4.61 | 63.7
51 | AUUUACCUAGGUCAUCGGGCG [Fam2.2 aminoacylation ribozyme variant] | 3.25 | 4.32 | 3.93 | 2.57 | 3 | 3.65
